Reference: patent US20080274100A1 (published 2008)
Numbering of substitutions follows the chain as printed.

B1: Y1 scFv (scFv)
chain: EVQLVESGGGVVRPGGSLRLSCAASGFTFDDYGMSWVRQAPGKGLEWVSGINWNGGSTGYADSVKGRFTISRDNAKNSLYLQMNSLRAEDTAVYYCARMRAPVIWGQGTLVTVSRGGGGSGGGGSGGGGSSELTQDPAVSVALGQTVRITCQGDSLRSYYASWYQQKPGQAPVLVIYGKNNRPSGIPDRFSGSSSGNTASLTITGAQAEDEADYYCNSRDSSGNHVVFGGGTKLTVLGAAAEQKLISEEDLNGAA
B2: D1 scFv (scFv)
scFv: EVQLVESGGGVVRPGGSLRLSCAASGFTFDLNPKVKHMWVRQAPGKGLEWVSGINWNGGSTGYADSVKGRFTISRDNAKNSLYLQMNSLRAEDTAVYYCARLRSPFGWGQGTLVTVSRGGGGSGGGGSGGGGSSELTQDPAVSVALGQTVRITCQGDSLRSYYASWYQQKPGQAPVLVIYGKNNRPSGIPDRFSGSSSGNTASLTITGAQAEDEADYYCNSRDSSGNHVVFGGGTKLTVLGAAAEQKLISEEDLNGAA
B3: S1 scFv (scFv)
scFv: B2 scFv with S104P, G107L
B4: S11 scFv (scFv)
scFv: B2 scFv with S104Y, G107F
notes: also called scFv S11

Columns and labels:
GPIb on human platelets [1] = biological target: T1, GPIb on human platelets (human, UniProt P07359 17-652); assay: cell-based or functional assay
T1 sequence (P07359 17-652): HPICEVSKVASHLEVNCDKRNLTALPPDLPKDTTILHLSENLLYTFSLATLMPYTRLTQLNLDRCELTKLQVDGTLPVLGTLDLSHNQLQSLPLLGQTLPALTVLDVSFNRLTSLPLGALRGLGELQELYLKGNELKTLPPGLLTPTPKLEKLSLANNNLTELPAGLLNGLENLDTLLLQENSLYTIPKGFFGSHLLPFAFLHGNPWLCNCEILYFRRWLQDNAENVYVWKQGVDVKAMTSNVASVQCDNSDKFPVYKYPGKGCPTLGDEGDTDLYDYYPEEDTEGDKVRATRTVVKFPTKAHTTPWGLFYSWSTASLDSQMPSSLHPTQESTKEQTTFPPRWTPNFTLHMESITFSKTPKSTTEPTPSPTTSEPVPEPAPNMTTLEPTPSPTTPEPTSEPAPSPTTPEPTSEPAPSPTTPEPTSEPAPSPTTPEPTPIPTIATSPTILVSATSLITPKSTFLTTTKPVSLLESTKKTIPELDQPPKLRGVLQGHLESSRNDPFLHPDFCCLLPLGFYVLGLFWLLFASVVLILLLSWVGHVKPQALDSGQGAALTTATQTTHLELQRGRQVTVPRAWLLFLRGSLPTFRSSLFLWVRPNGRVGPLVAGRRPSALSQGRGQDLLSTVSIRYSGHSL

glycocalicin = biological target: T2, glycocalicin (UniProt P07359 17-506); assay: SPR (BIAcore 3000), glycocalicin immobilized on CM5 chip
T2 construct: domain: glycocalicin (the outer membrane portion derived from GPIb); also called purified glycocalicin; purified GPIbα
T2 sequence (P07359 17-506 limits assumed): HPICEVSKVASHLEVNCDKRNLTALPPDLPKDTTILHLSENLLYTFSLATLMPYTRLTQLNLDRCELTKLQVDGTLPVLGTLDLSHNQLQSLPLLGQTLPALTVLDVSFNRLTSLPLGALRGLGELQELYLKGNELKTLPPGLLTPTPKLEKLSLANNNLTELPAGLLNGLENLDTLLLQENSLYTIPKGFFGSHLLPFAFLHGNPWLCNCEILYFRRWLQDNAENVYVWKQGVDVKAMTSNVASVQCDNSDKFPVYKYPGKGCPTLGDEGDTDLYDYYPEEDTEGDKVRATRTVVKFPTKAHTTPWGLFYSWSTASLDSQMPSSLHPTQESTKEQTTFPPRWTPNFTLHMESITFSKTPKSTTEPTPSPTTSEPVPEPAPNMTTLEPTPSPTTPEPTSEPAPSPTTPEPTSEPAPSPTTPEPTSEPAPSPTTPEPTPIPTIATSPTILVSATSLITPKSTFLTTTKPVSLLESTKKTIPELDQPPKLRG

GPIb on human platelets [2] = biological target: T1, GPIb on human platelets; assay: FACS on human platelets
[3] = biological target: T3, platelet GPIb, guinea pig (guinea pig platelets) (guinea pig); assay: FACS on guinea pig platelets
T3 construct: whole, on cells; also called guinea pig derived platelets

[4] = biological target: T4, human CCR5 on transfected L1.2 cells (human, UniProt P51681 1-352); assay: flow cytometry, L1.2 cells transfected with human CCR5
T4 construct: whole, on cells
T4 sequence (P51681 whole entry): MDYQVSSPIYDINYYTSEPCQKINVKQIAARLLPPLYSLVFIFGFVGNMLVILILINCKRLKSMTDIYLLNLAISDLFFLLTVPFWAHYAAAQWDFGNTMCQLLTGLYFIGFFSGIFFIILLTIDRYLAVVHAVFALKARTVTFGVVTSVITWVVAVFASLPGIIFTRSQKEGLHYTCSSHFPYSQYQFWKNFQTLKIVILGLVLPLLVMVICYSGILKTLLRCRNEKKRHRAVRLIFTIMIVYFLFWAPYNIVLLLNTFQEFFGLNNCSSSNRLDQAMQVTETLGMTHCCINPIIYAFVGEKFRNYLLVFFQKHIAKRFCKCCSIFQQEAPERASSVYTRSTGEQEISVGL

[5] = biological target: T5, CXCR4 point mutant Tyr-21 to alanine (UniProt P61073 1-352); assay: epitope mapping with tyrosine-to-alanine point mutants of CXCR4
T5 construct: also called CXCR4 Y21A
T5 sequence (P61073 other isoform, or with tags, fused parts or gaps mutant limits assumed): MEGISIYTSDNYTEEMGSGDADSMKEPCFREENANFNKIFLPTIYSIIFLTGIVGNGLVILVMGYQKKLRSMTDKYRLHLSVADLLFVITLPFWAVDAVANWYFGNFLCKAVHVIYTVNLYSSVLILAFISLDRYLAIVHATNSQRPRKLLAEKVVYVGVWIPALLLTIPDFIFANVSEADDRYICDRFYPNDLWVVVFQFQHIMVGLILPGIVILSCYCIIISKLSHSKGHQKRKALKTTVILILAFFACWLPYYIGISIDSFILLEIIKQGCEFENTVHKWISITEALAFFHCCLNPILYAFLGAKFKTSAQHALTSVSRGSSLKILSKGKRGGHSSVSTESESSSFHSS

Row | Binder | inhibition of ristocetin-induced, vWF-dependent platelet aggregation in washed platelets (IC50) (GPIb on human platelets [1]) [nM] | Kd (glycocalicin) [nM] | koff (glycocalicin) [s⁻¹] | fold binding capacity relative to Y1 (GPIb on human platelets [2]) [fold] | fold binding capacity relative to Y1 [3] [fold] | binding result [4] | binding result [5]
1 | B1 | 800 | 450 | 0.12 | – | – | – | –
2 | B2 | – | – | – | ~25 | ~25 | – | –
3 | B3 | – | – | – | – | ~25 | – | –
4 | B4 | – | – | – | ~25 | ~25 | binds | no binding
